Measured values reported in patent EP4491631A1 (Anaveon AG, dated 2025).

B1: JLI141 (bispecific antibody, human IgG1, lambda, L234A L235A)
chain 1: EVQLLESGGGLVQPGGSLRLSCAASGFTFSINAMTWVRQAPGKGLEWVSTISGSGFSTYYADSLKGRFTISRDNSKNTLYLQMNSLRAEDTAVYYCAKEVYGDYWGQGTLVTVSSASTKGPSVFPLAPSSKSTSGGTAALGCLVKDYFPEPVTVSWNSGALTSGVHTFPAVLQSSGLYSLSSVVTVPSSSLGTQTYICNVNHKPSNTKVDKRVEPKSCDKTHTCPPCPAPEAAGGPSVFLFPPKPKDTLMISRTPEVTCVVVDVSHEDPEVKFNWYVDGVEVHNAKTKPREEQYNSTYRVVSVLTVLHQDWLNGKEYKCKVSNKALAAPIEKTISKAKGQPREPQVYTLPPSREEMTKNQVSLTCLVKGFYPSDIAVEWESNGQPENNYKTTPPVLDSDGSFFLTSKLTVDKSRWQQGNVFSCSVMHEALHNHYTQKSLSLSPGK
chain 2: not shown
chain 3: AIRLTQSPSSFSASTGDRVTITCKASQSVDYGGGNFHLRPRDLISNINVIVLELKGSETTFMCEYADETATIVEFLNRWITFSQSIISTLTPTSSSTKKTQLQLEHLLLDLQMILNGINNYKNPKLTRMLTFKFYMPKKATELKHLQCLEEELKPLEEVLNLAQSKGGGGDSYMNWYQQKPGKAPKLLIYAASNLESGVPSRFSGSGSGTDFTLTISSLQSEDFATYYCQQSNEDPYTFGGGTKVEIKGGGGSGGGGSGGGGSEVQLVQSGAEVKKPGESLKISCKGSGYAFTNYLIEWVRQMPGKGLEWMGVINPGSGGTNYNEKFKGQVTISADKSISTAYLQWSSLKASDTAMYYCARWRGEGYYAYFDVWGQGTTVTVSSGGGGSGGGGSEVQLLESGGGLVQPGGSLRLSCAASGFTFSINAMTWVRQAPGKGLEWVSTISGSGFSTYYADSLKGRFTISRDNSKNTLYLQMNSLRAEDTAVYYCAKEVYGDYWGQGTLVTVSSASTKGPSVFPLAPSSKSTSGGTAALGCLVKDYFPEPVTVSWNSGALTSGVHTFPAVLQSSGLYSLSSVVTVPSSSLGTQTYICNVNHKPSNTKVDKRVEPKSCDKTHTCPPCPAPEAAGGPSVFLFPPKPKDTLMISRTPEVTCVVVDVSHEDPEVKFNWYVDGVEVHNAKTKPREEQYNSTYRVVSVLTVLHQDWLNGKEYKCKVSNKALAAPIEKTISKAKGQPREPQVYTLPPSREEMTKNQVSLYCLVKGFYPSDIAVEWESNGQPENNYKTTPPVLDSDGSFFLYSKLTVDKSRWQQGNVFSCSVMHEALHNHYTQKSLSLSPGK
B2: GQM289 (bispecific antibody, human IgG1, kappa, lambda, L234A L235A)
chain 1: B1 chain 1
chain 2: not shown
chain 3: EVQLVQSGAEVKKPGESLKISCKGSGYAFTNYLIEWVRQMPGKGLEWMGVINPGSGGTNYNEKFKGQVTISADKSISTAYLQWSSLKASDTAMYYCARWRGEGYYAYFDVWGQGTTVTVSSASTKGPSVFPLAPSSKSTSGGTAALGCLVKDYFPEPVTVSWNSGALTSGVHTFPAVLQSSGLYSLSSVVTVPSSSLGTQTYICNVNHKPSNTKVDKRVEPKSCDKTHTCPPCPAPEAAGGPSVFLFPPKPKDTLMISRTPEVTCVVVDVSHEDPEVKFNWYVDGVEVHNAKTKPREEQYNSTYRVVSVLTVLHQDWLNGKEYKCKVSNKALAAPIEKTISKAKGQPREPQVYTLPPSREEMTKNQVSLYCLVKGFYPSDIAVEWESNGQPENNYKTTPPVLDSDGSFFLYSKLTVDKSRWQQGNVFSCSVMHEALHNHYTQKSLSLSPGK
chain 4: not shown

Target: T1, IL-2R CD122-CD132 on Jurkat-PD1+ CD122+ cells (UniProt P14784 27-551; P31785 23-369)
T1 sequence (looked up) 1: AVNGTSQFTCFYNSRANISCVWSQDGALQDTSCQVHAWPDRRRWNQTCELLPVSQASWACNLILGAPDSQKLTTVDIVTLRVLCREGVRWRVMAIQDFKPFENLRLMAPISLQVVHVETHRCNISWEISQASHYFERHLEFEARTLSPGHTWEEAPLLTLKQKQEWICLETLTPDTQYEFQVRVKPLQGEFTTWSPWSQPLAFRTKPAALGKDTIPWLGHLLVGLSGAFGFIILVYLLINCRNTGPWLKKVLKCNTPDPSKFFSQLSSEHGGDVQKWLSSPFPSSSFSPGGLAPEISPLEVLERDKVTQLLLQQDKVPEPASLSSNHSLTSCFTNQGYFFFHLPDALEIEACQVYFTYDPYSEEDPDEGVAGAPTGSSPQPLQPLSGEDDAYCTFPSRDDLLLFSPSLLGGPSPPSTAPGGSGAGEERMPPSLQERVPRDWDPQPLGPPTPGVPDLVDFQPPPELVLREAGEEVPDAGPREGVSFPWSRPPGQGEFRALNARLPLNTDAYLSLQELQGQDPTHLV
T1 sequence (looked up) 2: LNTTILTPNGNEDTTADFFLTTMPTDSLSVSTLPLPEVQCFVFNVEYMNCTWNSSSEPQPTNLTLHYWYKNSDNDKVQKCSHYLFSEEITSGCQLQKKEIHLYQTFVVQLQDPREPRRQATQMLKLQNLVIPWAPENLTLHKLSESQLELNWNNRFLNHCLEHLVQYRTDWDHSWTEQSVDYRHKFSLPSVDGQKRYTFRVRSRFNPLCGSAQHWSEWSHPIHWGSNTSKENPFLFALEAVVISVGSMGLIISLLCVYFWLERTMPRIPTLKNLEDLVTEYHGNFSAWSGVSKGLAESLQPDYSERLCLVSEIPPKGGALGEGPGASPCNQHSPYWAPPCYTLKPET
Test: cell-based or functional assay

| Binder | EC50 value for pSTAT5 induction |
| --- | --- |
| B1 | 0.2 nM |
| B2 | 0.22 nM |
